Experimental data taken from publication PMC8991989.

Target: Epidermal growth factor receptor (EGFR), labelled for MST (UniProt P00533)
Experiment: MST

FIP-nha, a fungal immunomodulatory protein from Nectria haematococca (natural protein)
Kd: 15.5 µM
